B1: SPSB1 (parent)
chain: DMRDPTYRPLKQELQGLDYCKPTR
B2: TMEM40 (parent)
chain: YGETDFHKQDGKAGLFSQEQYERN

Variants of: B1
Test: protein stability index of a GFP-peptide fusion (GPS, HEK-293T) (PSI 1-6); higher = more stable
Details: c terminus: a fixed tail appended
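Also: lentivirally expressed fusions sorted by FACS into six bins by GFP to DsRed ratio, PSI derived from sequencing read proportions per bin multiplied by bin number.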

Protein stability index, by site and new letter:
P22: E 4.79, S 3.68, V 2.9, F 2.85, R 4.4, Q 4.26, T 3.07, A 3.44, Y 3.13, H 4.15, W 2.84
P9: W 2.99, T 2.64, A 2.69, F 3.26, G 3.51, H 2.35, D 3.28, K 2.94
K11: G 3.17, L 3.24, R 3.54, A 3.68, H 3.32
D18: A 3.81, C 3.08, K 3.53, F 2.67, M 2.94, H 3.73, L 2.95, P 3.63, R 3.97
L17: N 4.33, R 3.8, S 4.18, M 4.12, D 4.65, F 3.08, C 3.85, A 3.82
C20: D 4.05, Y 3.58, P 3.94, L 2.98
Q15: W 2.53, L 2.81, C 2.57, T 3.55, A 3.32
P5: W 2.76, H 3.88, I 2.63, Q 3.55, L 3.53, G 3.19, M 3.57, T 3.17, E 3.65
L14: N 3.95, S 4.24, A 4.04, T 4.28
D1: K 3.06, L 2.36, F 3, P 3.82, Q 2.83, M 3.39, S 3.02
E13: N 3.03, C 2.91, L 2.42
Y19: W 3.04, S 4.35, C 3.91
T23: M 2.87, Q 3.47, I 2.52, A 3.18, S 2.92, H 3.19, V 3.29
K21: G 3.66, W 1.98, S 2.92, Y 2.18, H 2.46, P 3.95, V 3.65
Q12: S 3.25, T 3.43, G 2.48, C 2.74, P 3.04, I 2.35, E 2.87, V 2.59, L 3.84, D 3.45, R 3.18, M 2.23
G16: C 3.17, P 3.06, W 3.12, L 3.45
M2: P 4.62, Y 2.72, T 2.64, G 3.78, W 2.57, I 3.19, C 3.01, E 3.51
L10: F 3.56, I 3.67, D 3.76, R 2.93, A 3.54, N 3.16, Q 3.68
D4: P 2.72, Y 2.83, T 2.8, V 2.81, A 3.54, I 3.13, H 2.7, S 2.61
R24: P 4.29, N 4.03, S 3.68, K 3.09, D 4.59
Y7: Q 4.24, L 3.25, E 3.86, T 3.68, G 2.64, A 2.08, K 3.31, W 3.1
R8: M 3.5, A 3.8, W 2.99, Y 3.13, T 3.08
T6: Q 3.55, G 3.93, L 2.71, V 3.31, A 3.33, R 3.62, H 2.9, D 2.72, C 2.91, I 3.63
R3: A 3.16, C 2.9, L 2.9, N 3.19, H 3.08, S 3.89, Y 2.8

Variants of: B2
Test: as above
Details: c terminus: a fixed tail appended

Protein stability index: each site, then its substitutions
N24: W 3.99, V 3.67, Y 3.85

Reference: the supplement of paper PMC10567573
